# Experimental data: paper PMC8602850
# Assays:
# [1] = target: gC1qR, wild type, mature recombinant (receptor for the globular heads of C1q) (UniProt Q07021); assay: SPR; gC1qR-WT or gC1qR-ΔΔ immobilised; two-fold dilution series of analyte injected; reference-corrected sensorgrams fit to kinetic models; apparent KD
# [2] = target: gC1qR-ΔΔ, gC1qR deletion mutant that removed the flexible, negatively charged loops (UniProt Q07021); assay: not stated; not published; oligomeric state of gC1qR-ΔΔ in solution and in the crystal
# Chain of gC1qR, wild type, mature recombinant (receptor for the globular heads of C1q) (Q07021 74-282): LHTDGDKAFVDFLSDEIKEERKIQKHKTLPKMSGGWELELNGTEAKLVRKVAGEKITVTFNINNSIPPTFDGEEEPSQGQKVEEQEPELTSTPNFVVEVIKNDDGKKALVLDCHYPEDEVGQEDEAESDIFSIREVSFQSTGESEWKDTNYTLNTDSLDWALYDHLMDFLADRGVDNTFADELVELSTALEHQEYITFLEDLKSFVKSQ
# Chain of gC1qR-ΔΔ, gC1qR deletion mutant that removed the flexible, negatively charged loops (from UniProt Q07021 74-282) (receptor) (Q07021 74-282, stated change not applied): as the sequence (Q07021 74-282) above
substance,measurement,setting,value
"SARS-CoV-2 Membrane-Envelope fusion protein, recombinant",Kd,[1],410 nM
"gC1qR-ΔΔ, gC1qR deletion mutant that removed the flexible, negatively charged loops (from UniProt Q07021 74-282) (receptor)",stoichiometry N,[2],3
